The record followed here is patent US20250049939A1, “NOVEL FLT3 ANTIBODIES AND ANTIBODY-DRUG-CONJUGATES BASED THEREON, THERAPEUTIC METHODS AND USES THEREOF IN COMBINATION WITH TYROSINE KINASE INHIBITORS” (TUBULIS GmbH, priority 2021, published 2025).

In this test the target is human CD64 (high affinity Fc receptor, FCGR1) on cells (human) (UniProt P12314). As to the kind of experiment: cell-based or functional assay.
Chain of human CD64 (high affinity Fc receptor, FCGR1) on cells (human) (P12314 16-374): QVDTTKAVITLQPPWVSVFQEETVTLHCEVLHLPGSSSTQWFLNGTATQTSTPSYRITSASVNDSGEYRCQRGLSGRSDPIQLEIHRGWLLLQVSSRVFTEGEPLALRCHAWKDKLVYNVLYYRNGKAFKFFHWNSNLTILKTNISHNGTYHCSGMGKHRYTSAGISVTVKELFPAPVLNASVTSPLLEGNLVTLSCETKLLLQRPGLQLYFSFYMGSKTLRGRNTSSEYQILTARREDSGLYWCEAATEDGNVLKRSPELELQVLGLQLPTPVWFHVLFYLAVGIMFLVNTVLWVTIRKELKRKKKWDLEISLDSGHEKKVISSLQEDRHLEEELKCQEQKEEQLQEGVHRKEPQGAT

Take “IgG1-ADC (palivizumab conjugated to MMAF) (antibody)”: the IC50 of cytotoxicity in Ba/F3-pMIY-CD64 cells is 31.8 ng/ml; the IC50 of cytotoxicity in Ba/F3 cells expressing both FLT3 and CD64 was 78.3 ng/mL; the IC50 of cytotoxicity in CD64 positive leukemia and lymphoma cell lines fell in the range of 12.8 to 2000 ng/mL.
